# Results: publication PMC5428233, “Cross-beta nanostructures based on dinaphthylalanine Gd-conjugates loaded with doxorubicin” (Scientific Reports, 2017)
# Experiments:
# Type in all cases: physicochemical
# [1] = Aggregation by 1D 1H NMR at increasing concentration; conditions: H2O/D2O 90/10 v/v
# Source text: This trend was also confirmed by ^1HNMR measurements (see Figure S4). We have recently analyzed the conformational properties of DOTA-L6-F4 in aqueous solution by mono- and multi-dimensional, homo- and hetero-nuclear NMR techniques. In the present work we have used a similar approach and thus implemented 1D [^1H] and 2D [^1H, ^1H] NMR spectroscopy to study two different compounds: DOTA-L6-F2 and 2Nal2 analogue in absence and in presence of the DOTA coordinated metal ion lanthanum (III), La. We used lanthanum (III) since it gives rise to a NMR “easy to handle” diamagnetic complex. Both DOTA-L6-F2 and 2Nal2 present low aggregation propensities. […] In detail by comparing spectra recorded at 0.3 mg/mL and 5.0 mg/mL chemical shift changes appear relevant in the spectral regions between 8.0 and 8.2 ppm, where signals from HN amide protons are present and between 3.0 and 3.5 ppm where several peaks overlap (Table S1). […]
# NMR experiments were acquired in the temperature range of 298–303 K on either a Varian Unity Inova 600 MHz spectrometer provided with a cold probe or a 400 MHz Varian instrument provided with a 5-mm triple resonance probe and z-axis pulsed-field gradients. […] The DOTA-L6-F2 was analyzed in the concentration range 0.3 mg/mL (i.e., 0.3 mM)–5.0 mg/mL (i.e., 4.8 mM); for the La-DOTA-L6-F2 the examined concentration range was 0.3 mg/mL (i.e., 0.3 mM)–10.0 mg/mL (i.e., 8.5 mM). […]
# [2] = Transmission electron microscopy of self-assembled conjugates; conditions: 5.0 mg/mL solution dried on grid, phosphotungstic acid stain
# Experimental: Self-assembled peptide conjugate at 5.0 mg/mL, as free base or as metal complex, was initially characterized using TEM. […] The presence of a diffraction pattern both in SAXS and in WAXS is fingerprint of a hierarchical organization of the molecules in fibers from the atomic to the nanoscale.
# TEM images were acquired by LaMest (Pozzuoli, Italy) with a FEI TECNAI G12 Spirit-Twin microscope (LaB6 source) endowed of a bottom mounted FEI Eagle-4k CCD camera (Eindhoven, The Netherlands), working at 120 kV.
# [3] = Self-aggregation by intrinsic naphthyl fluorescence (intensity decrease, excimer peak); conditions: water, room temperature, excitation 280 nm
# Experimental: Self-organization of the peptide conjugates at the atomic level was further characterized also in solution with fluorescence, UV-Vis, ^1HNMR, CD and FTIR spectroscopies. […] From ispection of Fig. 1b, the typical emission spectrum of the 2-naphthyl group with three maxima at 325, 340 and 355 nm, respectively, can be detected.
# The determination of CAC (critical aggregate concentration) values was determined as previously described[6] by the titration of the fluorescent probe ANS (8-anilino-1-naphthalene sulfonic acid ammonium salt)[28], [29] with the peptide conjugates[30].
# [4] = Water proton relaxation measurements / NMRD profiles; conditions: aqueous solution, 298 K
# Source text: The paramagnetic relaxivity (r1p) of Gd (III) complexes is given by:1 r1p∝1/T1MH=Kf(τR) where K is a constant related to the strength of the dipolar interaction between the protons and the electronic magnetic moment, and τR is the correlation time associated with the reorientation of the Gd-H magnetic vector. This means that slowly moving high molecular weight systems are endowed with higher relaxivity than rapidly reorienting low molecular weight ones. In the case of self assembling Gd-containing systems, the extent of aggregation may be evaluated through the measure of the water proton longitudinal relaxation rate of its aqueous solution. In Fig. 8 are reported the NMRD (Nuclear Magnetic Resonance Dispersion) profiles of Gd-2Nal2 acquired at 21.5 MHz (0.5 T) and 298 K as a function of the complex concentration. […] At concentrations higher than 10–15 mg/mL the relaxivity assumes an almost stable value which corresponds to the system in the completely aggregated form. By analyzing the profile of the relaxivity data as a function of the applied field strength (NMRD - Nuclear Magnetic Relaxation Dispersion) it is possible to obtain an accurate determination of the reorientational correlation time (τR)[16], that is strictly related to the molecular size of the investigated system. NMRD profiles were acquired below (black circles) and above (white ones) the CAC values determined by ANS titration and ^1HNMR. […] Data were analyzed using the Solomon-Bloembergen-Morgan model, [18], considering one water molecule in the inner coordination sphere (q = 1) and fixing the exchange lifetime (τM) to a reliable value ([…]) on the basis of those previously reported for mono-amido DOTA derivatives[19]–[22]. The quantitative analysis of the NMRD profile of the aggregated form was not satisfactory when the simple inner- outer-sphere model was used, so the Lipari-Szabo approach was used for the description of the rotational dynamics. This model allows one to take into account the presence ofa certain degree of internal rotation superimposed on the overall tumbling motion, [24]. These two types ofmotion, a relatively fast local rotation of the coordination cage about the linker to the peptide scaffold superimposed on the global reorientation of the system, are characterized by different correlation times: τR ^l and τR ^g, respectively. The degree of correlation between global and local rotations is given by the parameter S^2, which takes values between 0 (completely independent motions) and 1 (entirely correlated motions).
# Measure of R1 (longitudinal water proton relaxation rates) of Gd-2Nal2 were carried out on a Stelar Spinmaster spectrometer (Pavia, Italy) operating at 0.5 T which corresponds to 21.5 MHz Proton Larmor Frequency. R1 (1/T1) values were measured at 298 K by mean of the standard inversion-recovery technique. For the measure of the proton 1/T1 NMRD (Nuclear Magnetic Resonance Dispersion) profiles, a fast field-cycling Stelar relaxometer, operating over a continuum of magnetic field strengths from 0.00024 to 0.47 T (corresponding to 0.01–20 MHz proton Larmor frequencies) was used. The temperature was set at 298 K. The relaxometer is computer controlled and the absolute uncertainty is 1/T1 ± 1%. Additional data points were obtained on a Stelar Spinmaster spectrometer coupled to an electromagnet tunable at different Larmor Frequencies between 21.5 and 70 MHz. Experimental temperature control was obtained with an air-flow heater (Stelar VTC-91) endowed of a copper constantan thermocouple (uncertainty 0.1 °C). A previously reported relaxometric method[39] was used for the determination of the concentrations of the solutions used for the relaxometric characterization. The conventional Solomon-Bloembergen-Morgan theory was used for fitting of experimental data.
substance,measurement,setting,value
DOTA-L6-(2Nal)2 [2Nal2],aggregation propensity by 1H NMR (in words),"[1]; 2Nal2 0.1-5.0 mg/mL, La-DOTA-L6-F2 0.3-10.0 mg/mL",cannot reveal significant aggregation
same,supramolecular aggregation / morphology in TEM images,[2],long fibrillary nanostructures
same,concentration of appearance of the excimer peak (380-430 nm) / formation of stable aggregates,[3],above 2.0 mg/mL
same,concentration at which self-aggregation begins (decrease of fluorescence intensity),[3]; 0.025-20.0 mg/mL range,200 to 500 µg/mL
DOTA-L6-F2 [reference compound],concentration at which aggregation appears in 1H NMR spectra (spectral changes / line broadening),[1]; 298-303 K,higher than 1.2 mg/mL
Gd-DOTA-L6-F2 [reference compound],r1p (longitudinal proton relaxivity),[4]; complex at 1 mg/mL,5.7 mM⁻¹ s⁻¹
same,r1p (longitudinal proton relaxivity),"[4]; complex at 25 mg/mL (nanoaggregates), text: at 20 MHz",6.0 mM⁻¹ s⁻¹
